Drawing on paper PMC7280531 (2020), this text covers Kd and Ka for 3 molecules.

B2: β-catenin (natural protein)
chain: MATQADLMELDMAMEPDRKAAVSHWQQQSYLDSGIHSGATTTAPSLSGKGNPEEEDVDTSQVLYEWEQGFSQSFTQEQVADIDGQYAMTRAQRVRAAMFPETLDEGMQIPSTQFDAAHPTNVQRLAEPSQMLKHAVVNLINYQDDAELATRAIPELTKLLNDEDQVVVNKAAVMVHQLSKKEASRHAIMRSPQMVSAIVRTMQNTNDVETARCTAGTLHNLSHHREGLLAIFKSGGIPALVKMLGSPVDSVLFYAITTLHNLLLHQEGAKMAVRLAGGLQKMVALLNKTNVKFLAITTDCLQILAYGNQESKLIILASGGPQALVNIMRTYTYEKLLWTTSRVLKVLSVCSSNKPAIVEAGGMQALGLHLTDPSQRLVQNCLWTLRNLSDAATKQEGMEGLLGTLVQLLGSDDINVVTCAAGILSNLTCNNYKNKMMVCQVGGIEALVRTVLRAGDREDITEPAICALRHLTSRHQEAEMAQNAVRLHYGLPVVVKLLHPPSHWPLIKATVGLIRNLALCPANHAPLREQGAIPRLVQLLVRAHQDTQRRTSMGGTQQQFVEGVRMEEIVEGCTGALHILARDVHNRIVIRGLNTIPLFVQLLYSPIENIQRVAAGVLCELAQDKEAAEAIEAEGATAPLTELLHSRNEGVATYAAAVLFRMSEDKPQDYKKRLSVELTSSLFRTEPMAWNETADLGLDIGAQGEPLGYRQDDPSYRSFHSGGYGQDALGMDPMMEHEMGGHHPGADYPVDGLPDLGHAQDLMDGLPPGDSNQLAWFDTDL

Where no end group is shown, it is not given here. [ ]: non-standard residue; d: D form. Ahx = NCCCCCC(=O)O

Common to all, as to assay: ITC
Assay [1] deals with B2.
In a further assay the target is SAHPA1-VHLL (stapled: side chains of olefin residues (S5, R8) cross-linked by ring-closing metathesis, positions in Figure 1a; 6-aminocaproic acid (Ahx) linker between the stapled peptide and the VHL ligand).
Another assay addresses SAHPA1 (stapled: side chains of olefin residues (S5, R8) cross-linked by ring-closing metathesis, positions in Figure 1a; N-terminus treated with acetic anhydride (typical protocol)).
For assay [2], the target named is B2.

B1: xStAx-VHLL (peptide)
chain: RRWPQLILDLHVRRVWR[Ahx]ALAPYIP
modifications: staple (positions not given here); not fully specified (C-terminus); also: further groups not given here
A word on the Kd: it is the equilibrium constant for the complex coming apart. A lower Kd goes with higher affinity. In the assay with β-catenin [1], B1 yielded an equilibrium dissociation constant (Kd) of 12 µM.

In the assay with SAHPA1-VHLL, B2 showed a Ka of 18100 M⁻¹ and a dissociation constant Kd of 55 µM. In the assay with SAHPA1, this molecule gave a Ka of 26400 M⁻¹ and a dissociation constant (Kd) of 38 µM.

B3: xStAx (peptide)
chain: Ac-RRWPQLILDLHVRRVWR
modifications: staple (positions not given here); not fully specified (C-terminus); also: further groups not given here
Turning to B3, the dissociation constant Kd with β-catenin [1] stood at 37 µM. In the assay with β-catenin [2], the Ka amounted to 27000 M⁻¹.
